The values that follow are results of earlier work, collected in publication PMC3253018.

As a reminder, the Kd is the constant that tells how readily two partners part at equilibrium.

In this data set the target is NiV-G attachment glycoprotein (Nipah virus) (UniProt Q9IH62).
NiV-G attachment glycoprotein (Nipah virus), sequence (Q9IH62 whole entry): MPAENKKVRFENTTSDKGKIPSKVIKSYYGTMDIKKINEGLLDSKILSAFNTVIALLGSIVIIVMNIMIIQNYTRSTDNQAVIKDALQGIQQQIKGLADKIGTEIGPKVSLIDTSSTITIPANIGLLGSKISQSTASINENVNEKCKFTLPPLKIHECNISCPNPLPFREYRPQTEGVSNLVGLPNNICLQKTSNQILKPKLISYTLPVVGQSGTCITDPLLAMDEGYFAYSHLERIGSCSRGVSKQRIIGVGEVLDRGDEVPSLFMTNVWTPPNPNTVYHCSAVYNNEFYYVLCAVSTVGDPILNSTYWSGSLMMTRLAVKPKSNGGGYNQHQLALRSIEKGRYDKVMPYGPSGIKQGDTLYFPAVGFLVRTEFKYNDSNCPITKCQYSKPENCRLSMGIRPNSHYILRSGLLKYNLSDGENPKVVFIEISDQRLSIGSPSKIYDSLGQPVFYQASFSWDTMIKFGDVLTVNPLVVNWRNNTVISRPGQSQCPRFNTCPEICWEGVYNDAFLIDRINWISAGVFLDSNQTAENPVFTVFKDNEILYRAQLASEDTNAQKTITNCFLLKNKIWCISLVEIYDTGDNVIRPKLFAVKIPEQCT

ephrinB2, sequence (P52799 28-333): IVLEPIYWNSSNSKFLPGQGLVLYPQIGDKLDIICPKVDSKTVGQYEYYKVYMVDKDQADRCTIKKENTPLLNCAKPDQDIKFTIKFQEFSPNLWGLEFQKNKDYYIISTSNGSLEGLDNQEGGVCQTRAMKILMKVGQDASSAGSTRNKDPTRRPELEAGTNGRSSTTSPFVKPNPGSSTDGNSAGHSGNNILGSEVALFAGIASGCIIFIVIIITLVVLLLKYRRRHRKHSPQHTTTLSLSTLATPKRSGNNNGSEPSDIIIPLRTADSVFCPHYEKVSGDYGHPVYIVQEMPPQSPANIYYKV

With ephrinB2 (from UniProt P52799), the Kd was 60 pM.
